Drawing on patent US20240083945A1 (Bicycle, published 2024), this text covers Kd for 44 molecules.

B1: BCY20265 (peptide)
peptide: ACSTDVCKLTGIAIPCA
modifications: N-terminal acetyl (Ac); Ci, Cii and Ciii cysteines covalently bound to TATA scaffold

The target of the experiment is T1, COVID-19 nucleocapsid protein (N-protein) (severe acute respiratory syndrome …, UniProt P0DTC9 1-419).
T1 construct: also called nucleocapsid protein (N-protein) of severe acute respiratory syndrome coronavirus 2 (SARS-CoV-2)
Nature of the experiment: bio-layer interferometry (BLI). Background: In BLI a coated tip is dipped into the sample, and binding shifts an interference pattern.
As a reminder, the Kd is a measure of binding affinity in units of concentration. Low values mean higher affinity, high ones lower affinity. ACRVTLDACWDTPCA (Ci, Cii and Ciii cysteines covalently bound to TATA scaffold) [BCY16579]: the dissociation constant Kd was 759 nM.

Take ACLAPGQRCQWGRTCA (Ci, Cii and Ciii cysteines covalently bound to TATA scaffold) [BCY17645]: the Kd worked out at 227 nM.

ACTNRNFCQNRYSVTCA (Ci, Cii and Ciii cysteines covalently bound to TBCU scaffold) [BCY16568] registered a Kd of 8160 nM.

HSLICVTDFCNNRYVVNRCMHSQ (Ci, Cii and Ciii cysteines covalently bound to TBMT scaffold) [BCY18987] yielded a dissociation constant Kd of 9.7 nM.

On to NQLPCLTDFCNNRYVVNRCA (Ci, Cii and Ciii cysteines covalently bound to TBMT scaffold) [BCY18992], for which binding was characterised by a dissociation constant (Kd) of 19.7 nM.

Molecule LARDCGTDFCNNRYVVNRCA (Ci, Cii and Ciii cysteines covalently bound to TBMT scaffold) [BCY18989] displayed a dissociation constant Kd of 26.5 nM.

Turning to ACTNLDWAYCYIHNQCA (Ci, Cii and Ciii cysteines covalently bound to TATA scaffold) [BCY19570], the Kd is 978 nM.

In turn, ACLAPGQRCNWTRVCA (Ci, Cii and Ciii cysteines covalently bound to TATA scaffold) [BCY17652] returned an equilibrium dissociation constant (Kd) of 142 nM.

Molecule LSQPCLTDFCNNRYVVNRCA (Ci, Cii and Ciii cysteines covalently bound to TBMT scaffold) [BCY18991] gave a dissociation constant (Kd) of 10.6 nM.

In the case of KTEYCETDFCNNRYVVNRCA (Ci, Cii and Ciii cysteines covalently bound to TBMT scaffold) [BCY18988], binding was characterised by a dissociation constant (Kd) of 29.1 nM.

ACHVDVCLITGVNIPCA (Ci, Cii and Ciii cysteines covalently bound to TATA scaffold) [BCY19567]: the Kd was found to be 2250 nM.

ACQVDVCALTGIQIPCA (Ci, Cii and Ciii cysteines covalently bound to TATA scaffold) [BCY19455] displayed a Kd of 14900 nM.

For the molecule ACSRANNYCDWWKCA (Ci, Cii and Ciii cysteines covalently bound to TBCU scaffold) [BCY16578], the equilibrium dissociation constant (Kd) stood at 22300 nM.

For ACLPLGARCQWQRECA (Ci, Cii and Ciii cysteines covalently bound to TATA scaffold) [BCY17648], binding was put at a Kd of 1860 nM.

ACLPLGARCNWTRVCA (Ci, Cii and Ciii cysteines covalently bound to TATA scaffold) [BCY17646]: the Kd is 198 nM.

Take ACLEAGQRCQWGRTCA (Ci, Cii and Ciii cysteines covalently bound to TATA scaffold) [BCY17644]: binding was put at a Kd of 675 nM.

ACLEAGQRCQWSRTCA (Ci, Cii and Ciii cysteines covalently bound to TATA scaffold) [BCY17651] gave a Kd of 686 nM.

ACVHDVCALTGIHIPCA (Ci, Cii and Ciii cysteines covalently bound to TATA scaffold) [BCY19453] came in with a dissociation constant (Kd) of 4240 nM.

On to ACTNLQWADCYINHVCA (Ci, Cii and Ciii cysteines covalently bound to TATA scaffold) [BCY19458], for which the affinity, expressed as Kd, was 2290 nM.

For ACTNLEWADCYINHNCA (Ci, Cii and Ciii cysteines covalently bound to TATA scaffold) [BCY19572], binding was put at a Kd of 1000 nM.

In turn, ACTNLEWANCYINHNCA (Ci, Cii and Ciii cysteines covalently bound to TATA scaffold) [BCY19573] yielded a dissociation constant (Kd) of 1190 nM.

On to ACENFQLGCRITYKCA (Ci, Cii and Ciii cysteines covalently bound to TATA scaffold) [BCY17643], for which binding was put at a Kd of 4230 nM.

Molecule B1 returned a dissociation constant (Kd) of 2.5 nM.

With ACTNLQWAMCYITGNCA (Ci, Cii and Ciii cysteines covalently bound to TATA scaffold) [BCY18172], the Kd was 2740 nM.

For ACDDWMIGCRITYKCA (Ci, Cii and Ciii cysteines covalently bound to TATA scaffold) [BCY17642], the Kd came to 3940 nM.

Turning to ACTHDVCVLTGISIPCA (Ci, Cii and Ciii cysteines covalently bound to TATA scaffold) [BCY19564], the equilibrium dissociation constant (Kd) is 2000 nM.

Molecule ACTVDVCAITGVQIPCA (Ci, Cii and Ciii cysteines covalently bound to TATA scaffold) [BCY19568] gave a Kd of 1870 nM.

ACLVDVCEITGVQIRCA (Ci, Cii and Ciii cysteines covalently bound to TATA scaffold) [BCY18171] returned a Kd of 5610 nM.

In turn, ACSVDVCAITGVHIPCA (Ci, Cii and Ciii cysteines covalently bound to TATA scaffold) [BCY19566] registered a dissociation constant Kd of 3260 nM.

With KSQRCMTDFCNNRYVVNRCA (Ci, Cii and Ciii cysteines covalently bound to TBMT scaffold) [BCY18993], binding was characterised by a dissociation constant (Kd) of 23.8 nM.

ACLPLGARCQWGRTCA (Ci, Cii and Ciii cysteines covalently bound to TATA scaffold) [BCY16576] had a Kd of 593 nM.

ACLPLGARCQWSRTCA (Ci, Cii and Ciii cysteines covalently bound to TATA scaffold) [BCY17647] registered a dissociation constant Kd of 548 nM.

Regarding ACLEAGQRCNWTRVCA (Ci, Cii and Ciii cysteines covalently bound to TATA scaffold) [BCY17649], the Kd is 596 nM.

ACMHDVCVLTGVNIPCA (Ci, Cii and Ciii cysteines covalently bound to TATA scaffold) [BCY19563] displayed a Kd of 1510 nM.

NQLPCLTDFCNNRYVVNQCQEQS (Ci, Cii and Ciii cysteines covalently bound to TBMT scaffold) [BCY18994]: the Kd is 6890 nM.

Consider ACAWDEYYQVCLPCA (Ci, Cii and Ciii cysteines covalently bound to TATA scaffold) [BCY16580], for which the Kd was 6680 nM.

For the molecule ACSTDVCKLTGIAIPCA (Ci, Cii and Ciii cysteines covalently bound to TATA scaffold) [BCY18169], the equilibrium dissociation constant (Kd) was 1600 nM.

As for ACSEEYMFCNNRYVVCA (Ci, Cii and Ciii cysteines covalently bound to TATA scaffold) [BCY16577], the Kd amounted to 934 nM.

ACLAPGQRCQWQRECA (Ci, Cii and Ciii cysteines covalently bound to TATA scaffold) [BCY17653] yielded a Kd of 799 nM.

In turn, ACTNLEWAYCYIHNECA (Ci, Cii and Ciii cysteines covalently bound to TATA scaffold) [BCY19571] returned a dissociation constant Kd of 958 nM.

Molecule ACDKWQLGCRITYKCA (Ci, Cii and Ciii cysteines covalently bound to TATA scaffold) [BCY16575] displayed a Kd of 1020 nM.

For the molecule ACTVDVCLLTGLHIPCA (Ci, Cii and Ciii cysteines covalently bound to TATA scaffold) [BCY19454], the affinity, expressed as Kd, was 7110 nM.

For the molecule ACTVDVCELTGLHIPCA (Ci, Cii and Ciii cysteines covalently bound to TATA scaffold) [BCY19565], binding was characterised by a dissociation constant (Kd) of 840 nM.

ACLEAGQRCQWQRECA (Ci, Cii and Ciii cysteines covalently bound to TATA scaffold) [BCY17650] displayed a dissociation constant (Kd) of 1990 nM.
